The values that follow are results of earlier work, collected in publication PMC7488417.

This data set concerns the target cJun LZ (Homo sapiens) (UniProt P05412). The data set is described as follows: ITC. For orientation: Isothermal titration calorimetry measures the heat released or taken up as one component is titrated into another.

Chain of cJun LZ (Homo sapiens) (P05412 277-308): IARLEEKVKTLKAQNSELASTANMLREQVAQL
Chain of cFos LZ (P01100 162-193): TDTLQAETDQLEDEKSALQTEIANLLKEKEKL

Turning to cFos LZ (from UniProt P01100), the equilibrium dissociation constant (Kd) was 26.6 µM.

What is called Kd is the concentration at which binding is half-saturated.
